Test results reported in patent US20200157212A1 (Pfizer, published 2020).

T1: Terbium (Tb) labeled-SNAP tagged ROBO2 expressed on HEK293 cells (Homo sapiens (Human), UniProt Q9HCK4 22-1378, terbium label on the SNAP tag)
T1 construct: also called Tb-labeled ROBO2 cells; ROBO2 expressing cells; not shown: SNAP tag
T1 sequence: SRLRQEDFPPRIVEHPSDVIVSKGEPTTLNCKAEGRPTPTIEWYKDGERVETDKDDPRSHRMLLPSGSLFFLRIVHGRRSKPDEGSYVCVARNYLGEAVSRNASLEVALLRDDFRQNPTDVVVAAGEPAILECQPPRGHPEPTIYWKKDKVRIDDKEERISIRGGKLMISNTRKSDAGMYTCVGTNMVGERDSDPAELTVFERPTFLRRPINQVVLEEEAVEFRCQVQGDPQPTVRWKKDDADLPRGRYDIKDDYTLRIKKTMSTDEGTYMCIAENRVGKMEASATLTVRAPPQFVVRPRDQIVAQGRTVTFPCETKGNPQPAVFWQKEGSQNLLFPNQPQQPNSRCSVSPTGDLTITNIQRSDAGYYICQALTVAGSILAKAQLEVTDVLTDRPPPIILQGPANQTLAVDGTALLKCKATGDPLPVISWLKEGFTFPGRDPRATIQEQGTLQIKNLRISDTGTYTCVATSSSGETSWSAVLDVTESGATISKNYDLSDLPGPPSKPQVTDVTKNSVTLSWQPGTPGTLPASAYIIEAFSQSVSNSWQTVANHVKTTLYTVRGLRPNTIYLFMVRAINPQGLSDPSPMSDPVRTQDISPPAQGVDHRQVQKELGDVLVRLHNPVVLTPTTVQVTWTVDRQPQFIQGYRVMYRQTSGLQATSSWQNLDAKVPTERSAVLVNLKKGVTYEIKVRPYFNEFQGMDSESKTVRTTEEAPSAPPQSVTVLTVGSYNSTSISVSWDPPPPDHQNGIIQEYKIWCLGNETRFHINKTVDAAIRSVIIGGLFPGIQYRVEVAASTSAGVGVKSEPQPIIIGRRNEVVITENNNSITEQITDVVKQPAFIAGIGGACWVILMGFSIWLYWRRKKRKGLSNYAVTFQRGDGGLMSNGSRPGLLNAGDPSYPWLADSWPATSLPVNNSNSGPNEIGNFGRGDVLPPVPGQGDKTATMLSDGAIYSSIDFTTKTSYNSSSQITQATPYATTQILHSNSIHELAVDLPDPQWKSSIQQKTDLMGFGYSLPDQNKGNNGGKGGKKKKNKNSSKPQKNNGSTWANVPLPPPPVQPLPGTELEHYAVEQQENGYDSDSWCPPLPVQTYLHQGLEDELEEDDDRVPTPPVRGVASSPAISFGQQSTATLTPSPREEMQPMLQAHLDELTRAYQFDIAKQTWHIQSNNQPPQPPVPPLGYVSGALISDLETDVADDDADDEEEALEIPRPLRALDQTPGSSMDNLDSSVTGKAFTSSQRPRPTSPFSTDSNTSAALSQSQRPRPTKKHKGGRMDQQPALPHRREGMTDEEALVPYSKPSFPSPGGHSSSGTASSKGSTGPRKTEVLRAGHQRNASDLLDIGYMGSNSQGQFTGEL

T2: Human ROBO2 overexpressed on HEK293 cells (human, UniProt Q9HCK4 22-1378)
T2 construct: also called ROBO2 cells; native ROBO2
T2 sequence: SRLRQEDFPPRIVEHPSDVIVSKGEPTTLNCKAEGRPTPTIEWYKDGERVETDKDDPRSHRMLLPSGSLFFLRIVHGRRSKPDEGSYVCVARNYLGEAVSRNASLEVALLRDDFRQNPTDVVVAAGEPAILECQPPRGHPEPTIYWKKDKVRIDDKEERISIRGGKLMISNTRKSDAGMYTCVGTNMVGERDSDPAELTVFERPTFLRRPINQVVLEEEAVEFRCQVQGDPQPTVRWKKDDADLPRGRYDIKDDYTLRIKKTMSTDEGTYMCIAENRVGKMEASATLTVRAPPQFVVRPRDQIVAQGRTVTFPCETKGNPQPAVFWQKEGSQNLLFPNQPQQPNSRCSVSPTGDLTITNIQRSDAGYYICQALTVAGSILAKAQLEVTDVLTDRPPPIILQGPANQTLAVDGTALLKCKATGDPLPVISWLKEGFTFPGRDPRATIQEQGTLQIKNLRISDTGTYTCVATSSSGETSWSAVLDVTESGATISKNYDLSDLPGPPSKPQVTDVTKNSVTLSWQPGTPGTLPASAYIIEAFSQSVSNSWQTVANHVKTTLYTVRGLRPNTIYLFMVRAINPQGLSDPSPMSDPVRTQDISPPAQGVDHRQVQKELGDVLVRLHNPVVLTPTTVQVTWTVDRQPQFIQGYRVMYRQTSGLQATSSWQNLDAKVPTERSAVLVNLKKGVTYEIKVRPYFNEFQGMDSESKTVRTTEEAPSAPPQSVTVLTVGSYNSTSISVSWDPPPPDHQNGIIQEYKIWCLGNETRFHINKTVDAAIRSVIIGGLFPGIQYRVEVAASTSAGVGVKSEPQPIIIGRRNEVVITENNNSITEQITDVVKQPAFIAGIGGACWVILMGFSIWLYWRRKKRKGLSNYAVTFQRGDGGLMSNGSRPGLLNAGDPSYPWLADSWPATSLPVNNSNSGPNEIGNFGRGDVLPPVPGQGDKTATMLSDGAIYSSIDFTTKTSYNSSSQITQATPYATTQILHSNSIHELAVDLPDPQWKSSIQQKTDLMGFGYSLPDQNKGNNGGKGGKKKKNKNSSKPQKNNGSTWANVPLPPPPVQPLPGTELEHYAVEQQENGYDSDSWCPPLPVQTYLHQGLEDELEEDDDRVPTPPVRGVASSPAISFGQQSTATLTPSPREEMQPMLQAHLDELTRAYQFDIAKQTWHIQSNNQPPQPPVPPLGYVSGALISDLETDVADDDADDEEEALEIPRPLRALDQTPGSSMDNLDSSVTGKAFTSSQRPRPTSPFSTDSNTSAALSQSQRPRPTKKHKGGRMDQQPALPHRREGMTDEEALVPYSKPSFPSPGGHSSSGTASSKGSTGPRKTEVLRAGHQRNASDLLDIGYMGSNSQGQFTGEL


Key:
[1] = target: T1, Terbium (Tb) labeled-SNAP tagged ROBO2 …; assay: HTRF, 5 nM d2-SLIT2-N on Tb-SNAP-ROBO2 HEK293 cells, 1 nM antibody
Experimental: (§1) In this assay, terbium (Tb) labeled-SNAP tagged ROBO2 expressing HEK293 cells were incubated with 5 nM d2-labeled SLIT-2N in the presence of 1 nM anti-ROBO2 antibodies for 1 hour. After incubation, fluorescence at 665 nm and 620 nm was measured on an Envision multilabel plate reader. […] Maximal signal was defined as the HTRF ratio of Tb-labeled ROBO2 cells with d2-labeled SLIT2-N in the absence of antibody, the minimum signal was defined as the HTRF ratio of Tb-labeled ROBO2 expressing HEK293 cells only. One nanomolar (nM) parental antibody, 93H2, was unable to block the HTRF assay, therefore this concentration was selected to identify clones with a higher affinity than 93H2 (Table 2, HTRF Ratio column). […] Antibodies derived from chain (Abcs series) or CDR shuffling (CTIR-2 series) were evaluated in 11-point, 5-fold dilution series with a top concentration of 1500 nM (Table 2 HTRF IC₅₀).
(§2) HTRF assays were run with 5 nM d2-labeled SLIT2-N and antibodies were added at 1 nM. […] Antibodies derived from chain (Abcs series) or CDR shuffling (CTIR-2 series) were evaluated in 11-point, 5-fold dilution series with a top concentration of 1500 nM, N.T. = not tested; ^cFold selectivity was calculated as Geometric Mean Fluorescent Intensity (Geo MFI) of ROBO2/Geo MFI of ROBO1 binding.

[2] = target: T2, Human ROBO2 overexpressed on HEK293 …; assay: flow cytometry on HEK293 cells overexpressing human ROBO2; N.B. = No binding to ROBO2
Experimental: The parental 93H2 antibody was highly ROBO2 specific, therefore affinity matured antibodies with single point neutralizing activity were screened by flow cytometry to ensure ROBO2 selectivity had been maintained. […] Binding of the antibodies was detected using a secondary fluorochrome conjugated anti-human IgG F(ab′)₂ antibody and samples were analyzed on a Fortessa cytometer (BD Biosciences). The fold ROBO2 selectivity was calculated as the geometric mean fluorescence intensity (Geo MFI) with ROBO2 cells/Geo MFI with ROBO1 cells. A fold change higher than 3 was considered to be ROBO2 specific (Table 2, Fold Selectivity). Some affinity matured clones had increased ROBO1 reactivity, for example Abcs 55, CTI-R2-10 and CTIR2-13.
Table 2 is a summary of assays used to screen antibodies against ROBO1 and/or ROBO2 to identify an antibody that specifically recognized ROBO2 but not ROBO1 with high affinity. […] Full dose curves were performed in the same assay for select antibodies. Recognition of native, surface expressed protein and ROBO2 selectivity was evaluated by flow cytometry. […] Anything with a value of greater than 3 was deemed to be selective for ROBO2. Outcomes of the various screening assays conducted for each antibody are highlighted in the final column.

[3] = target: T1, Terbium (Tb) labeled-SNAP tagged ROBO2 …; assay: HTRF competition, competitor d2-SLIT2-N, ROBO2 HEK293 cells
Experimental: as §1, with “Antibodies generated as a result of the affinity maturation campaign were screened by numerous assays for neutralization of SLIT2-N binding, selective binding to ROBO2 over ROBO1, and inhibition of SLIT2-N functional activity (see Table 2). A ROBO2-SLIT2-N homogenous time resolved fluorescence (HTRF) assay was used to identify antibodies that were capable of blocking SLIT2-N binding to ROBO2. In” for “In”

[4] = target: T2, Human ROBO2 overexpressed on HEK293 …; assay: flow cytometry, Geo MFI ROBO2/ROBO1 HEK293 cells, 0.1 µg/ml
Experimental: Binding of the antibodies was detected using a secondary fluorochrome conjugated anti-human IgG F(ab′)₂ antibody and samples were analyzed on a Fortessa cytometer (BD Biosciences). The fold ROBO2 selectivity was calculated as the geometric mean fluorescence intensity (Geo MFI) with ROBO2 cells/Geo MFI with ROBO1 cells. A fold change higher than 3 was considered to be ROBO2 specific (Table 2, Fold Selectivity). Some affinity matured clones had increased ROBO1 reactivity, for example Abcs 55, CTI-R2-10 and CTIR2-13.
as §2, with “binding. […] Outcomes: results are listed in order of assays listed in the table (left to right), I.A. = Improved Affinity” for “binding.”

| Binder | HTRF Ratio [1] | binding result [2] | IC50 [3] [nM] | Fold Selectivity for ROBO2/ROBO1 [4] [fold] |
| --- | --- | --- | --- | --- |
| Ab1 (antibody, human IgG1, kappa, V domains shown, full-length human IgG) VH: EVQLVQSGAEVKKPGASVKVSCKASGYTFTGYDMHWVRQAPGQGLEWMGWINPNSGATNFPQKFQGRVTMTRDTSITTAYMDLSRLRSDDTAVYYCARESGDDAFDIWGQGTMVTVSS VL: DIVMTQSPSSLSASVGDRVTITCRASQKISSYLNWYQQKPGKAPKLLIYAASSLQSGVPSRFSGSGSGTDFTLTISSLQPEDFATYYCQQSYSTSFGGGTKVEIKR | 14000 | no binding (tested: 0.1 µg/ml) | – | – |
| Ab13 (antibody, human IgG1, kappa, V domains shown, full-length human IgG) VH: EVQLVQSGAEVKKPGASVKVSCKASGYTFTGYDMHWVRQAPGQGLEWMGWINPNSGATNFPQKFQGRVTMTRDTSITTAYMDLSRLRSDDTAVYYCARESGDDAFDIWGQGTMVTVSS VL: DIVMTQSPSSLSASVGDRVTITCRASQSISSYLNWYQQKPGKAPKLLIYAASSLQDGVPSRFSGSGSGTDFTLTISSLQPEDFATYYCQQSYSTSFGGGTKVEIKR | 13800 | no binding (tested: 0.1 µg/ml) | – | – |
| Ab112 (antibody, human IgG1, kappa, V domains shown, full-length human IgG) VH: EVQLVQSGAEVKKPGASVKVSCKASGYTFTGYYMHWVRQAPGQGLEWMGWINPNSGATNFPQKFQGRVTMTRDTSITTAYMDLSRLRSDDTAVYYCARESGDDAFDIWGQGTMVTVSS VL: DIVMTQSPSSLSASVGDRVTITCRASQSISSYLNWYQQKPGKAPKLLIYAASSLQSGVPSRFSGSGSGTDFTLTISSLQPEDFATYYCQQSVGLSFGGGTKVEIKR | 7300 | – | 0.174 | 39.2 |
